Test: soluble on expression in E. coli; label from the status in PepcDB or PDB records

| Sequence | soluble on expression in E. coli |
| --- | --- |
| MSLVIYMIGGSPCSGKSTIASLLARQYQLLHIKLDDLVDEMMSQASADSQPICLLRQDRNPEQIWMRNPKEMADEEWRFYEEIFPYVKSYLIKKDRPLLVEGAGLLPHLVKELEWPASSYLCLTPTADFQKKHYRQREWVSYVLEGTTNPEQAFENWMQRDILFAQMVRKEAMRLGYSSLMTDGSQSEKQTAEEIARLLKLYNINEIDIKGENEGHHHHHH | soluble |
| MSLVSYVEVIKNGETISSCFQPFQKNENYGTITSANEQITPVIFHNLIMDMVLPKVVPIKGNKVTKMSMNLIDGFDCFYSTDDHDPKTVYVCFTLVDMPKILPIRILSGLQEYESNATNELLSSHVGQILDSFHEELVEYRNQTLNSSGNGQSSNGNGQNTISDIGDATEDQIKDVIQIMNDNIDKFLERQERVSLLVDKTSQLNSSSNKFRRKAVNIKEIMWWQKVKNITLLTFTIILEGHHHHHH | soluble |
| MSLVTKEREQIYILDGDIPFLAQRARLEANFTMEAKAHIQLFHQYFFNLPPDNDYIKWTVGKAMYMADGTALKQKQALDENGFYSDIISSSAVCTIMCDSIQFDEHERKFTYYGTQLIKRRTKDLKRSMITTGYIESVPRTRNNPHGLLITNWRTLENKDLDYEGHHHHHH | soluble |
| MSLYELTEDFKLRKITKYELDGIDEREDLLVIPPSSKAGPCGNACLFCYLLQNPPEMIYKVPRHDTLNDPDLENRIRYARKHYDLWIRVTDTSGNIKFDENRIKSLYDAGLDEIQISVHTTKKDVRARLMRNRQAGKLIDLLPLVAKHFRTIADIILTPGFNVEDIGEIIEDLDSMGVHEVRLFPVGVTRYNKFGVRPLTREELSYVKGIALEKDKELAIKVVIPPIFLALLGEFTTGLEPFDIEPDFPTYIFTGELAYQEMKRLFPRVNVIMVKNEFFGGNIGSAGLLTGRDILREVEKLPEVDLGLIILPELMFYGDMTLDGWRRQELFSKILIEKGYIVETALEPTEIPRVIEKVTLEGHHHHHH | soluble |
| MSLYTYIDLFAGPGGLCTGFKNAGFKPLIAVEMSDNTVKTYARNHEAEVYSLQELLENKGRLEEILNINTDNTCLIHGDIRLVDNDIIVEILQKKFKTNSVDVVAGGPPCESFSLAGKRIDGDERDDLFKNMLRIASISNSKFIFFENVPGLLTKKSNNIKVFDVIVEEFDNYGYNLASTDKNIIKCLAADYGVPQNRERVFLIGINKMYGENPYIYPEKTHGEGRKFEYISVSDALRYLPELNSGEGADIQQITYNFEEDFRKGKISEAVYNYLKFIAGKEGYIPPHIKESIDDGLIEIHKAVKHREKMINRMSYIKQGEGMKKAAERLINEGKEDIVRAYFPNKLYAARNRRLKANEPSFTVTSHCLDEMVHPYNNRGLTPREAARLQSFPDWYVFEGEYVKFHSDPQQDKYEQCGDAIPVLLVKALAEQLKIALNIVSERTSINEGHHHHHH | not soluble |
| MSLYYVTEDDVDKNFDMKAAINAVREAFEEYGKGRAYSSTRVRTFSQDGVLNTMPAAMEKYHISGLKSYYATRNGAKFVVVLFDTAADELLAIIEANRLGQIRTGAVTAYATSILHKNVEIFAIIGSGFQAETQLEGMLKVANPTEIRVYSRNQEHARNFSERSSKKFGVSIRAVESAEAALIGADTITTITNSNVPIVYRKYLGDEYHINLAGSNYINRREAESAVLSDANIVVTEHLEQSLIESVEISEYVKLGGKPIELKDVAVDPTRYSKFHRTVFKSMGIGLEDIISGYAVLKNMGIIEGHHHHHH | soluble |
| MSMLPTFGFTQEQVACVCEVLQQGGNIERLGRFLWSLPACEHLHKNESVLKAKAVVAFHRGNFRELYKILESHQFSPHNHAKLQQLWLKAHYIEAEKLRGRPLGAVGKYRVRRKFPLPRSIWDGEETSYCFKEKSRSVLREWYAHNPYPSPREKRELTEATGLTTTQVSNWFKNRRQRDRAAEAKERENNENSNSNSHNPLNGSGKSVLGSSEDEKTPSGTPDHSSSSPALLLSPPPPGLPSLHSLGHPPGPSAVPVPVPGGGGADPLQHHHGLQDSILNPMSANLVDLGS | soluble |
| MSMLQRPGYPNLSVKLFDSYDAWSNNRFVELAATITTLTMRDSLYGRNEGMLQFYDSKNIHTKMDGNEIIQISVANANDINNVKTRIYGCKHFSVSVDSKGDNIIAIELGTIHSIENLKFGRPFFPDAGESIKEMLGVIYQDRTLLTPAINAINAYVPDIPWTSTFENYLSYVREVALAVGSDKFVFVWQDIMGVNMMDYDMMINQEPYPMIVGEPSLIGQFIQELKYPLAYDFVWLTKSNPHKRDPMKNATIYAHSFLDSSIPMITTGKGENSIVVSRSGAYSEMTYRNGYEEAIRLQTMAQYDGYAKCSTIGNFNLTPGVKIIFNDSKNQFKTEFYVDEVIHELSNNNSVTHLYMFTNATKLETIDPVKVKNEFKSDTTTEESSSSNKQ | soluble |
| MSMSSMSSPSSAVCSPDHFSPSDHLCYVQCNFCQTILAVNVPYTSLFKTVTVRCGCCTNLLSVNMRSYVLPASNQLQLQLGPHSYFNPQDILEELRDAPSNMNMMMMNQHPTMNDIPSFMDLHQQHEIPKAPPVNRPPEKRQRVPSAYNRFIKEEIQRIKAGNPDISHREAFSAAAKNWAHFPHIHFGLVPDNQPVKKTNMPQQEGEDNMVMKEGFYAPAAANVGVTPY | soluble |
| MSNAMPWVRFYLYDWISGTNGMTSEQRGVYITLLVCMYEKKEPLKTDFETLARVCHCSQKKFAAIVEYLMRNDKLIEIDGRLWNLDVEEELNNLSEELDNFTFNNNEEKEVKYVN | not soluble |
| MSNANQKITTFLMFEGKAEEAMNFYTSLFDQSEIVSISRYDENGPGKEGTVIHATFTLNGQEFMCIDSYVNHNFTFTPAMSLYVTCETEEEIDTVFHKLAQDGAILMPLGSYPFSKKFGWLNDKYGVSWQLTLAE | soluble |
| MSNFISPVYEIKSIPIEKISPNDYNPNSVAPPEMKLLYDSIKSDGYTMPIVCYYDKEEDRYSIVDGFHRYRIMLDYSDIYERESGRLPVSVIDKSLDYRMASTIRHNRARGSHD | not soluble |
| MSNFLDLQKQRRSIYALGKTVDLSKAELVALIQNAIKQAPSAFNSQTSRALVLFGQDSQDFWNKIAYSELEKVTPAEAFAGTKAKLESFAAGVGTILLFEDQAVVRNLEENFPLYAENFQPWSEQAHGIALYAIWLALAEQNIGMSVQHYNPLVDAQVAEKYDLPTNWKMRAQIPFGSIEAPAGEKEFMADQERFKVFGDLEHHHHHH | soluble |
| MSNLPFHQFCGTEGYVASRALQDVVNVAIALERPLLLKGEPGTGKTLLAYHIAKALGMEIILWNVKSTTKARDGLYTYDTVQRLNDARFGDGDVRDIRHYIKLGPLGRAFGSAERVVLLIDEVDKADIEFPNDLLFELDEMRFHVLETDEWVSAAHRPVVIVTSNSEKELPDAFLRRCVFHYIDFPDETQMRAIIDVHFPDLPAELMRSACKVFYGLREVPGLRKRPSTSELLDWIRVLLASGARLPEEETPALQSVPFLGALVKIQEDADILAHHASRSADVRTAGRRFFRLEHHHHHH | not soluble |
| MSNLVLYTLHLSPPCRAVELTAKALGLELEQKTINLLTGDHLKPEFVKLNPQHTIPVLDDNGTIITESHAIMIYLVTKYGKDDSLYPKDPVKQARVNSALHFESGVLFARMRFIFERILFFGKSDIPEDRVEYVQKSYELLEDTLVDDFVAGPTMTIADFSCISTISSIMGVVPLEQSKHPRIYAWIDRLKQLPYYEEANGGGGTDLGKFVLAKKEENAKA | soluble |
| MSNQYINEPITTGKVTLETTAGDIEIELWTKEAPLACRNFIQLCMENYYKGTVFHRLVKNFILQGGDPTATGTGGESIYGKPFKDEIHQRLKFNRRGIVGMANAGRDDNGSQFFFTIGDRGAPELDKKHTIFGKVTGPTLFNMLKITEVETEGDRPVTFYKITGARIDNNPFDDLKPREKRKKEKSERRKEPKVVETKKTNLLSFGDEVEEDEQELAVFNKV | not soluble |
| MSNSDEQILQFYVEHFEKALEKTQNVLLEFAESPLNHLKPTKRATDAQAFQFNSTCPGVENLNKLEREALFQQSSFVNLWLNLAYTCSKSSLSFWDSRDQGSEGGKLEVFMPRLHDSLTTEFHRIHLDPQEFATICAITTWKIHQWGTVEANTVAGQHYLAVIKELNNHHKKTTTMRDFERALRITEIISLLVPIGRMLQEVKTLYETLGIKDDGRE | not soluble |
| MSNTESTPVFDVCLSEKSFPHAQDKAILVHVFLSQTKDIDNLTEFQTLAESAGVELLSTLTTSRNAPHIKYFVGQGKAEEIAQAVENLGATVVLINHQLSPAQTRNLQNLCGCRIVDRSGLILDIFAQRARSHEGKLQVELAQLRHLSTRLVRRLGNQDQQKGGSVGLRGPGETQLETDRRLIKVRIQQLQNQLDKVNKKRHQNRKTRQKADIPTVSLVGYTNAGKSTLFNAITQAGVYAADQLFATLDPTLRRMQIQDVGTTILADTVGFIRFLPHDLVSAFKSTLQETTEANLLLHVVDIADERKNDNITAVNQVLDEIGALTLPSLLIYNKVDKITDITPHIERNQEGKPIAVYLSAHTNQGIDLLYQAIRECLRNELVCQKILLPTTAGQIYAQIRNQNCIKQEHFNQFGDRLIDIEVNAVQWQKWLKQYPALIEYVAFAKWENELEHHHHHH | not soluble |
| MSNTHEVRPGQSIELLKALHILTRDGKMNQDSRRKLKQVYHLYQFIEPLLQNARNARGAVTLVDHGAGKSYLGFILYDLFFKDRRDASHIYGIETRAELVQSATELAARLGFGGMSFLNLSVADSIASEQLPPRVDIVTALHACNTATDDAIRFALAKQAQSIVLVPCCQAEVAAVLRKNKARALADPMAELWRHPLHTREFGSQLTNVLRCLQLEAHGYQLSVTELVGWEHSMKNELIIARHQPGRPRREPARRLREMLERIGLQELSERFQVPAQP | not soluble |
| MSNTKTASTGFAELLKDRREQVKMDHAALASLLGETPETVAAWENGEGGELTLTQLGRIAHVLGTSIGALTPPAGNDLDDGVIIQMPDERPILKGVRDNVDYYVYNCLVRTKRAPSLVPLVVDVLTDNPDDAKFNSGHAGNEFLFVLEGEIHMKWGDKENPKEALLPTGASMFVEEHVPHAFTAAKGTGSAKLIAVNF | soluble |
| MSNTQKKNVPELRFPGFEGEWEEKKLGNLTTKIGSGKTPKGGSENYTNKGIPFLRSQNIRNGKLNLNDLVYISKDIDDEMKNSRTYYGDVLLNITGASIGRTAINSIVETHANLNQHVCIIRLKKEYYYNFFGQYLLSRKGKRKIFLAQSGGSREGLNFKEIANLKIFTPTIFEEQQKIGKFFSKLDRQIELEEQKLELLQQQKKGYMQKIFTQELRFKDENGEEYPEWENKFIKDIFIFENNRRKPITSSLREKGLYPYYGATGIIDYVKDYLFNNEERLLIGEDGAKWGQFETSSFIANGQYWVNNHAHVVKSNDHNLFFMNYYLNFKELRAFVTGNAPAKLTHANLCNINLKIPCLTEQDKVSALLKSIDNKMNNQMNRIELLKERKKGLLQKMFI | not soluble |
| MSNVPAELKYSKEHEWLRKEADGTYTVGITEHAQELLGDMVFVDLPEVGATVSAGDDCAVAESVKAASDIYAPVSGEIVAVNDALSDSPELVNSEPYTGGWIFKIKASDESELESLLDATAYEALLEDE | not soluble |
| MSNWKPNIPYNDLPPLPPKQDIESKTILKRCIAARASLARLKQAAELIPNQAMLINTLPVMEARASSEIENIVTTTDKLFQSLQMDTERQDPATKEALQYRTALFAGYESLTSRPLCTQTAIMVCNAIKHPYEMAIRKTGGTALKGGNSGNVVYTPPEGEETIRGKLANWERFIHESGDLDPLIIMAAAHYQFEAIHPFTDGNGRTGRILNSLLLIEKGLLDLPILYLSRYIIENRADYYRLLLGVTERQDWESWIIYILDGVADTADWTVSKIDAIRRLFEQTRQHIRTHAQGIYTHELVNLLFEQPYTRIANLEAAGIAKRQTASKYLKELSDIGVLQEIVIGRDKLFIHPRLMELLRGEGNSFTSFQSLVKA | not soluble |

— the DeepSol protein solubility set
